# Reference: US20250084161A1 (BIOSCEPTRE AUST, published 2025)
# T1: pDisplay-ECD2 on HEK293 cells (Homo sapiens (Human), UniProt Q99572 47-306)
# T1 construct: also called ECD2 as pDisplay; not shown: N-terminal HA tag of pDisplay (told for ECD1); c-Myc tag and PDGFR transmembrane anchorage of pDisplay (told for ECD1)
# T1 sequence: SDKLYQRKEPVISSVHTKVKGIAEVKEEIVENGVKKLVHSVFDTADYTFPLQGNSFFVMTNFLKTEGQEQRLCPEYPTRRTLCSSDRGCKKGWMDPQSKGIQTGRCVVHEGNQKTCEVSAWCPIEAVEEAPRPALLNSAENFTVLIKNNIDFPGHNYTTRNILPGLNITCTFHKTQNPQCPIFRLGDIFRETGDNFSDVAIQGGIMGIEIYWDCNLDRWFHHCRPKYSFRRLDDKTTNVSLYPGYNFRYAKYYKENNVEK
# T2: ECD2, P2X7 receptor (47-306), soluble (Homo sapiens (Human), UniProt Q99572 47-306)
# T2 construct: also called soluble ECD2; ECD2 domain
# T2 sequence: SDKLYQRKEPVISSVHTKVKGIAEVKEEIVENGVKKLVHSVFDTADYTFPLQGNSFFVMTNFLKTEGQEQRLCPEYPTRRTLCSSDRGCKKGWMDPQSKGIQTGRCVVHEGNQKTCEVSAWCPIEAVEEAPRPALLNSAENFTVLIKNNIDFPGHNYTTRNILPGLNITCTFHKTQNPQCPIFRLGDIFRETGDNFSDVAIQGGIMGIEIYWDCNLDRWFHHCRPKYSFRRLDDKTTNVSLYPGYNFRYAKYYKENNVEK
# Tests used:
# [1] = target: T1, pDisplay-ECD2 on HEK293 cells; assay: flow cytometry, live HEK293E cells expressing pDisplay-ECD2 ('HEK293E-pDisplay ED'), dAb at 5 uM, detection with anti-human IgG Fab
# E200 peptide [2] = target: T3, E200 peptide; assay: Biacore using E200, dAb-Fc
# T3 construct: Made by solid phase synthesis at Chiron Mimotopes; Which form (free, conjugated, biotinylated) was on the chip is told only for some experiments; also called peptide antigen E200; E200-biotin peptide
# [3] = target: T2, ECD2, P2X7 receptor (47-306), soluble; assay: Biacore against ECD2 in either solution form or as a ECD-Fc construct; Fc format; ECD2 in solution or as ECD-Fc, form not told
# E200 peptide [4] = target: T3, E200 peptide; assay: Biacore using E200 (10RU), dAb-Fc at 100 pM to 1 nM
# [5] = target: T2, ECD2, P2X7 receptor (47-306), soluble; assay: Biacore, labelled dAb domain at 5 and 2.5 nM; target taken as ECD2 from the sentence before; Alexa488-labelled dAb domain
# [6] = target: T2, ECD2, P2X7 receptor (47-306), soluble; assay: Biacore, dAb domain without Fc; dAb domain, no Fc format
# [7] = target: T2, ECD2, P2X7 receptor (47-306), soluble; assay: Biacore against ECD2 in either solution form or as a ECD-Fc construct; Fc construct
# [8] = target: T2, ECD2, P2X7 receptor (47-306), soluble; assay: Biacore, labelled dAb domain at 10 and 5 nM; target taken as ECD2 from the paragraph before; Alexa488-labelled dAb domain, different parent
# [9] = target: T2, ECD2, P2X7 receptor (47-306), soluble; assay: single domain format; method not given
# E200 peptide [10] = target: T3, E200 peptide; assay: Biacore, E200 peptide
# [11] = target: T2, ECD2, P2X7 receptor (47-306), soluble; assay: Biacore against ECD2 in either solution form or as a ECD-Fc construct; Fc format taken from context
binder,measurement,setting,value
"42.2 (other, also called PEP2-42-2; PEP2-42-2 dAb) VH single domain (dAb): EVQMLESGGGLVQPGESLRLSCAASGFTFDNVEMSWVRQAPGKGLEWVSSIGSKGEYTYYADSVKGRFTISRDNSKNTLYLQMNSPRAEDTAVYYCAQTVNVPEPAFAYWGQGTLVTVSS",binding result,[1],binds
"PEP2-42 Fc (Fc fusion, Standard format dAb-Fc with human type IgG1 Fc subtype; also called 2-42 (PEP-Fc); not shown: human IgG1 Fc) EVQLLESGGGLVQPGGSLRLSCAASGFTFDNVEMSWVRQAPGKGLEWVSSIGSKGEDTYYADSVKGRFTISRDNSKNTLYLQMNSLRAEDTAVYYCAQTVNVPEPAFAYWGQGTLVTVSS",Kd,E200 peptide [2],5500 pM
"2.4 (other, Read as PEP2-2-4, in line with '2' = PEP2-2 and '47.1' = PEP2-47-1; it is not PEP2-4; also called PEP2-2-4; PEP2-2-4 dAb) VH single domain (dAb): EVQLLESGGGLVQPGGSLRLTCAASGFSFRNHDMGWVRQAPGKGLEWVSAISGSGGSTYYADSVKGRFTISRDNSKNTLYLQMNSLRAEDTAVYYCAEPKPMDTEFDYRSPGTLVTVSS",binding result,[1],binds
"PEP2-247-2 Fc (Fc fusion, Standard format dAb-Fc with human type IgG1 Fc subtype; also called 2-247-2 (PEP-Fc); 2-2-1/2-47-1 CDR crossover; not shown: human IgG1 Fc) EVQLLESGGGLVQPGGSLRLSCAASGFTFRNHDMGWVRQAPGKGLEWVSAISGSGGSTYYANSVKGRFTISRDNSKNTLYLQMNSLRAEDTAVYYCAEPSHFDRPFDYRSQGTLVTVSS",Kd,E200 peptide [2],450 pM
"PEP2-247-1 Fc (Fc fusion, Standard format dAb-Fc with human type IgG1 Fc subtype; also called 2-247-1 (PEP-Fc); 2-2/2-47-1 CDR crossover; not shown: human IgG1 Fc) EVQLLESGGGLVQPGGSLRLSCAASGFTFRNHDMGWVRQAPGKGLEWVSAISGSGGGTYYADSVKGRFTISRDNSKNTLYLQMNSLRAEDTAVYYCAEPSHFDRPFDYRSQGTLVTVSS",Kd,E200 peptide [2],190 pM
"PEP2-2-3 Fc (Fc fusion, Standard format dAb-Fc with human type IgG1 Fc subtype; also called 2-2-3 (PEP-Fc); not shown: human IgG1 Fc) EVQLLESGGGLVQPGGSLRLSCAASGFTFRNHDMGWVRQAPGKGLEWVSAISGSGGSTYYADSVKGRFTISRDNSKNTLYLQMNSLRAEDTAVYYCAEPKPMDTEFDYWSPGTLVTVSS",Kd,[3],1500 pM
same,Kd,E200 peptide [4],130 pM
"PEP2-2-2 Fc (Fc fusion, Standard format dAb-Fc with human type IgG1 Fc subtype; also called 2-2-2 (PEP-Fc); not shown: human IgG1 Fc) EVQLLESGGGLVQPGGSLRLSCAASGFTFRNHDMGWVRQAPGKGLEWVSAISGSGGSTYYADSVKGRFTISRDNSKNTLYLQMNSLRAEDTAVYYCAEPKPMDTEFDYRSQGTLVTVSS",Kd,E200 peptide [2],100 pM
"PEP2-2-1-1 Fc (Fc fusion, Standard format dAb-Fc with human type IgG1 Fc subtype; also called 2-2-1-1 (PEP-Fc); not shown: human IgG1 Fc) EVQLLESGGGLVQPGGSLRLSCAASGFTFRNHDMGWVRQAPGKGLEWVSAISGSGGSTYYADSVKGRFTISRDNSKNTLYLQMNSLRAEDTAVYYCAEPKPMDTEFDYRSPGTLVTVSS",Kd,E200 peptide [2],90 pM
"PEP2-2-12Alexa488 domain (other, Alexa488 label attached (site not stated), Human VH dAb domain, labelled; also called PEP2-2-12 with Alexa488 label) VH: EVQLLESGGGLVQPGGSLRLSCAASGFTFRNHDMGWVRQAPGKGLEWVSAISGSGGSTYYANSVKGRFTISRDNSKNTLYLQMNSLRAEDTAVYYCAEPKPMDTEFDYPSPGTLVTVSS",Kd,[5],174 pM
"47.1 (other, also called PEP2-47-1; PEP2-47-1 dAb) VH single domain (dAb): EVQLLESGGGLVQPGGSLRLSCAASGYTFPMKDMGWVRQAPGKGLEWVSAISGSGGGTYYADSVKGRFTISRDNSKNTLYLQMNSLRAEDTAVYYCAEPSHFDRPFDYRSQGTLVTVSS",binding result,[1],binds
"PEP2-2-12 dAb domain (other, Human VH dAb domain, no Fc format) VH: EVQLLESGGGLVQPGGSLRLSCAASGFTFRNHDMGWVRQAPGKGLEWVSAISGSGGSTYYANSVKGRFTISRDNSKNTLYLQMNSLRAEDTAVYYCAEPKPMDTEFDYPSPGTLVTVSS",Kd,[6],945 pM
"PEP2-2-1 Fc (Fc fusion, Standard format dAb-Fc with human type IgG1 Fc subtype; also called PEP2-2-1 dAb-FC; not shown: human IgG1 Fc) EVQLLESGGGLVQPGGSLRLSCAASGFTFRNHDMGWVRQAPGKGLEWVSAISGSGGSTYYANSVKGRFTISRDNSKNTLYLQMNSLRAEDTAVYYCAEPKPMDTEFDYRSPGTLVTVSS",Kd,[7],560 pM
"PEP2-472-12Alexa488 domain (other, Alexa488 label attached (site not stated), Human VH dAb domain, labelled) VH: EVQLLESGGGLVQPGGSLRLSCAASGYTFPMKDMGWVRQAPGKGLEWVSAISGSGGGTYYADSVKGRFTISRDNSKNTLYLQMNSLRAEDTAVYYCAEPKPMDTEFDYRSPGTLVTVSS",Kd,[8],156 pM
"PEP2-47 dAb (other, Human VH dAb, unformatted) VH: EVQLLESGGGLVQPGGSLRLSCAASGFTFPMKDMGWVRQAPGKGLEWVSAISGSGGSTYYADSVKGRFTISRDNSKNTLYLQMNSLRAEDTAVYYCAEPSHFDRPFDYWGQGTLVTVSS",binding result,[9],binds
"PEP2-2-3 dAb (other, Human VH dAb, unformatted; also called unformatted dAb PEP2-2-3) VH: EVQLLESGGGLVQPGGSLRLSCAASGFTFRNHDMGWVRQAPGKGLEWVSAISGSGGSTYYADSVKGRFTISRDNSKNTLYLQMNSLRAEDTAVYYCAEPKPMDTEFDYWSPGTLVTVSS",Kd,E200 peptide [10],7000 pM
"PEP2-472-1 Fc (Fc fusion, Standard format dAb-Fc with human type IgG1 Fc subtype; also called 2-47-1/2-2-2 CDR crossover; not shown: human IgG1 Fc) EVQLLESGGGLVQPGGSLRLSCAASGYTFPMKDMGWVRQAPGKGLEWVSAISGSGGGTYYADSVKGRFTISRDNSKNTLYLQMNSLRAEDTAVYYCAEPKPMDTEFDYRSQGTLVTVSS",Kd,E200 peptide [2],90 pM
same,Kd,[11],584 pM
"2.5 (other, Read as PEP2-2-5; it is not PEP2-5; also called PEP2-2-5; PEP2-2-5 dAb) VH single domain (dAb): EVQLLESGGGLVQPGGSLRLSCAASGFTFRNHDMGWVRQAPGKGLEWVSAISGSGGSTYYADSVKGRFTISRDDSKNTLYLQMNSLRAEDTAVYYCAEPKPMDTEFDYRSPGTLVTVSS",binding result,[1],binds
"PEP2-47 Fc (Fc fusion, Standard format dAb-Fc with human type IgG1 Fc subtype; also called 2-47 (PEP-Fc); not shown: human IgG1 Fc) EVQLLESGGGLVQPGGSLRLSCAASGFTFPMKDMGWVRQAPGKGLEWVSAISGSGGSTYYADSVKGRFTISRDNSKNTLYLQMNSLRAEDTAVYYCAEPSHFDRPFDYWGQGTLVTVSS",Kd,E200 peptide [2],7500 pM
"PEP2-47-1 Fc (Fc fusion, Standard format dAb-Fc with human type IgG1 Fc subtype; also called 2-47-1 (PEP-Fc); not shown: human IgG1 Fc) EVQLLESGGGLVQPGGSLRLSCAASGYTFPMKDMGWVRQAPGKGLEWVSAISGSGGGTYYADSVKGRFTISRDNSKNTLYLQMNSLRAEDTAVYYCAEPSHFDRPFDYRSQGTLVTVSS",Kd,E200 peptide [2],110 pM
